Experiment: yeast display, Sf9 membrane polyspecificity reagent, FACS + sequencing; frameworks hold sequencing errors
How it was run: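 Polyreactivity labels are assigned by the sorting gate from which each nanobody was recovered. The gates were low and high (top ~1%), set on anti-HA fluorescence for expression and streptavidin fluorescence for reagent binding. Before sorting, galactose-induced (36–48 hours) yeast display cells were stained for 1 hour at 4 °C with 10% biotinylated, detergent-solubilized Sf9 membrane reagent.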

Sequence	polyreactivity (PSR sort gate)
QVQLVESGGGLDQAGGSLRLSCAASGITFYDYAMGWYRQAPGKEREFVASITSSGGSTYYADSVKGRFTISRDNAKTTVYLQMNSLKPQDPAVYYCAARGYNPYGRKVGYWGQGTQVTVSS	high polyreactivity
QVQLVESGGGLVQAGGSLRLSCAASGYIFNYYAMGWYRQAPGKERELVAAITSGDSTYADSVKGRFTISRDNAKNTVYLQMNSLKPEDTAVYYCAAEISILPFVTPDTIYGYWGQGTQVTVSS	low polyreactivity
QVQLVESGGGLVQAGGSLRLSCAASGYNLSVNAMGWYRQAPGKERELVATIDIAGGSTYYADSVNGRFTISRDNAKNTVYLQMNSMKPVDTAVYYCNTEWNSLSKSSLGGRYDHWGQCTQVTVSS	low polyreactivity
QVQLVESGGGLVQAGGSLRLSCAASGSISYFNAMGWYRPAPGKERELVAAITSGGSTYYADSVKGRFTISRDNAKNTVYLQMTSLKPEDTAVYYCNAPLEWGVYAAQNWDDGYWGQGTQVTVSS	low polyreactivity
QVQLVESGGGLVQAGGSLRLSCAASGRTLFGNAMGWYRQAPAKERELVAAISRRGGSTSYADSVKGRFTISRDNAKNTVYLQMNSLKPEDTAVYYCASAQGKYTGTHYPYDYWGQGTQVTVSS	low polyreactivity
QVQLVESGGGLVQAGGSLRLSCAASGSTFWGYGMGWYRQAPGKERELVATINQSAGSTYYADSVKGRFTISRDNAKNTVYLQLNSLNPEDPAAYYCATDLIQGAAPFRYDYWGQGTQVTVSS	low polyreactivity
QVQLVESGGGLVQAGGSLRLSCAASGSTFGSNALGWYREAPAKERELVAAIDANCGSTYYADSVKGRFTISRDNAKNTVYLQMHSQKQEDTAVYYCAAAGYCYYYVPNDYWGQGTQVTVSS	low polyreactivity
QVQLVESGGGLVQAGGSLRLSCAASGFTFYRYAMGWYRQAPGKERELVAAITQSGGSTYYADSVKGRFTISRDNAKNTVYLQMNSLKPEDTAVYYCAARYRYDYGYGLGYSWGQGTQVTVSS	high polyreactivity
QVQLVESGGGLVQAGGSLRLSCAASGFIFRYNAMGWYRQAPGKERELVAAISWNGGRTYYADSVKGRFTISRDNAKNTVYLQMNSLKPEDTAVYYCAAELSSYFFSAGYDYWGQGTQVTVSS	high polyreactivity
QVQLVESGGGLVQAGGSLRLSCAASGRIFGQYTMGWYRQAPGKERELVAAISRSSSTKYADSVKGRFTISRDNAKNTVYLQMNSLKPEDTAVYYCAAYVYYYGGRTYDYWGQGTQVTVSS	high polyreactivity
QVQLVESGGGLVQAGGSLRLSCAASGSTFYVYAMGWYRQAPGKERELVAAIDSGDSTNYADSVKGRFTISRDNAKNTVYLQMNSLNPEDTAVYYCAVGYWDSRYRYDWPNSDYWGQGTQVTVSS	low polyreactivity
QVQLVESGGGLVQAGGSLRLSCAASGRIFSYTARGWSRQAPGKERELVAAISGSTGNTYYADSVKGRFTISRDNAKTTLYLQMNSLKPEDTAVYYCNKLGYKYDYWGQGTQVTVSS	high polyreactivity
QVQLVESGGGLVQAGGSLRLSCAASGIIFRRYAMGWYRQGPGKERELVAAITHRGSTYYADSVKGRFTISRDNAKNTVYLQMNSLKPEDTAVYYCAADGFTRWGRYDYWGQGTQVTVSS	high polyreactivity
QVQLVESGGGLVQAGGSLRLSCAASGRIIAYYAMGWSRQAPGKERELVAAINWNGGSTYYADSVKGRFTISRDNAKNTVYLQMNSLKPEDTAVYYCNAGRTYTALNGDYWGQGTQVTLSS	high polyreactivity
QVQLVESGGGLVQAGGSLRLSCAASGSTIYYAMGWYRQAPGKERELVAAISYSGGSTRYADSVKGRFTISRDNAKNTVYLEMNFLKPEDTSVYYCAAPRKYYYGESPLDYWGQGTQVTVSS	high polyreactivity
QVQLVESGGGLVQAGGSLRLSCAASGSIFHYYAMGWYRQAPGKERELVAAISWSGGRTNYADSVKGRFTISRDNAKNTVYLQMKSLKPEDTAVYYCAAGNSFSDRGHRVYFQYYYWGQGTLVTVSS	high polyreactivity
QDQLVESGGGLVQAGGSLSLSCAASGRTFYDYAMGWYRQAPGKERELVAAISRSGGRTYYADSVKGRFTISRDNAKNTVYLQMNSLKPEDTAVYYCNAVRYVLGYSYDYNYWGQGTQVTVSS	high polyreactivity
QVQLVESGGGLVQSGGSLRLSCAASGSTFLWYAMGWYRPAPGKERELVASISRGGGTDYADSVKGRFTISRDNAKKTVYLQMNSLIPEDTAVYYCAATGVYRYDHWGQGTQVTVSS	low polyreactivity
QVQLVESGGGLVQAGGSLRLSCAASGSIFITYAMGWYIQAPGKERELVTAIRDSGDRTYYADSVKGRFTISRDNAKNTVYLQMNSLKPEDTSVYYCAAVLYSRLYWDRLDYWGQGTQVTVSS	low polyreactivity
QVQLVESGGGLFQAGGSLRLSCAASGSIFWSYAMGWYRQAPGKERELVAAISSGGSTNYADSVKGRFTISRDNAKNTVYLQMNSLQPEDTAVYYCNALGAKGYVKGFDYWGQGTQVTVSS	low polyreactivity
QVQLVESGGGLVQAGGSLRLSCAASGLIIRYYAMGWYRQAPGKERELVAAISYNGGSTYYADSVKGRFTISRDNAKNTVYLQMNSLKPEDTAVYYCAARGRYRIGPGRYGKRYDYWGQGTQVTVSS	high polyreactivity
QVQLVESGGGLVQAGGSLRLICAASGRIFALYAMGWYRQAPGKEREFVATITRGASTNYADSVKGRFTISRDNAKNTVYLQMNSLKPVDTAVYYCAAAGYKAAGRVVASYYWGQGTQVTVSS	high polyreactivity

Sequence	polyreactivity (PSR sort gate)
QVQLVESGGGLVQAGGSLRLSCAASGRIFGSYAMGWYRQAPGKERELVAAITTDDSTNYADSVKGRFTISRDNAKNTVYLQMNSLKPEDTAVYYCNAERWDELFDSWGQVTQVTVSS	low polyreactivity
QVQLVESGGGLVQAGASLRLSCAASGSNSKSYAMGWYRPAPGKERELVAAISWRGGSTYADSVKGRFTNSRDNAKNTVYFQMNSQKPVDTAVYYWAATNYGTFWGGQSERYDYWGQGTQVTVSS	low polyreactivity
QVQLVESGGGLVQAGGSLRLSCAASGLIFYRYTMGWYRQAPGKERELVAAITSTGTSTYYADSVKGRFTISRDNAKNTVYLQMNSLKPEDTAVYYCAARYIARGKWDYDYWGQGTQVTVSS	high polyreactivity
KVQLVESGGGLVQAGGSLRLSCAASGRIFVGYAMGWYRQAPGKERELVAAINRSGSSTYYADSVKGRFTISRYNAKNTVYLQMNSLKPEDTAVYYCNARSGKRYGPRYDYWGQGTQVNVSS	high polyreactivity
QVQLVESGVGLVQAGGRLLLSCAASRSIFTRYTMGWYSQAPGKEWELVATISSRGDGTFYADSVKGRFTISRDNAKNTFYLQMNSLKPEDTAVYYCAARYRRVHSGYGYWGQVTQVTVSS	high polyreactivity
QVQLVESGGGLVQARGSLRLTCAASGNIFVSYAMGWYRPAPGKERELVAAISKRGGSTYYADSVKGRFTISRDNAKNTVDLQMISLKPEDTAVYYCAALGHVDDSIYDYWGQGTQVTVSS	high polyreactivity
QVQLVESGGGLVQAGGSLRLSCAASGSIFGPNAMGWYRQAPGKERELVAAISKSGSSTYYADSVKGRFTISRDNAKNTVYLQMNSLKREDTAVYYCAAKVSYSGVFSYYYWGQGTQVTVSS	high polyreactivity
QVQLVEAGGGLVQAGGTLRLSCAASGYTFIYYAMGWYRQAPGKERELVATISIDGSTNYADSVKRRFTISRDNAKNTVYLQMNSLKPEDTAVYYCNRERYEDYDYWGQGTQVTVSS	high polyreactivity
QVQLVESAGGLVQAGGSLRVRCAASGGIFSGNDMGWYRQAPGKERELVATITSDGSTNYADSVKGRFTISRDNAKNTVYLQMNSLKPEDTAVYYCAADGLYWWMYYWGQGTQVTVSS	low polyreactivity
QVQLVESGGGLDQAGRSLRLSCAASGLIFTDYTMGWYRQAPGKERELVATISTGGRTFYADSVKGRFTISRDNAKNTVYLQMNSLKPEDTAVYYCAKDQPGRAGFLFTPGLVDYDYWGQGTQVTVSS	low polyreactivity
QVQLVESGGGLVQAGGSLRLSCAASGRTSYTNAMGWYRQAPGKERELVAAINYSGGSTYYADSVKGRFTISRDNAKNTVYLQMNSLKPEDTAVSYCAAERYYWYTEMGYWGQGTQVTVSS	high polyreactivity
QVQLVESGGGLVQAGGSLRLSCAASGSNFTFYTMGWYRQEPGKERELVAAINWSGSRTYYADSVKGRFTISRDNAKNTVYLQMNSLKPEDTAVYYCDAYYYTGPTTVESDYWGQGTQVTVSS	high polyreactivity
QVQLVESGGGLVQAGGSLRLSCAASGFIFQGYTMGWYRQAAGKERELVAAITSSGRTYYADSVKGRFTISRDNAKNTVYLQMNSLKPEDTAVYYCNADFLPSVANDYWGQGTQVTVSS	low polyreactivity
QVQLVESGGGLVQAGGSLRLSCAASGRIFYPYAMGWYRQAPGKERELVAAIRISGGSTYYADSVKGRFTISRDNAKNTVYLQMISLNPEDTAVYYCNASARLQPAYSWFYYWGQGTQVTVSS	high polyreactivity
QVQLVESGGGLVQAGGSLRLSRAASGFTWSYAMGWYRQAPGKERELVATISDGVSTNYADSVKGRFTISRDNAKNTVYLQRNSLKPEDTAVYYCAAEIPRRWASFATLWYDYWGQGTQVTVSS	low polyreactivity
QVQLVESGGGLVQAGGSLRLSWAASGSIFRYNAMGWYRQAPGKERELVAAISSGGGTTYYADSVKGRFTISRDNAKNSVYLQMNSLKPEVTAVYYCNARSYYQRTTYPFRVDYWGQGTQVTVSS	high polyreactivity
QVQLVESGGGIVQAGGSLRLSCAASGSSINLYAMGWYRQAPGKERELVAAINDDAGSTYYADSVKGRFTISRDNAKNTVYLQMNSLKPEDTAVYYCNAGSRSTEYDYWGQGTQVTVSS	low polyreactivity
QVQLVESGGGLVQAGGSLRLSCAASGSTSVPYTMGWYRQAPGKERELVAAISSSGGTTNYAVSVKGRFTISRDNAKNTVSLQMNSLKPEDTAVYYCAAEYYQWVAYSWNEMYYWGQGTQVTVSS	low polyreactivity
QVQLVESGGGLVQAGGSLRLSCAASGRIFGQYAMGWYRQAPGKEREFVAGISTTGGSTYYADSVKGRFTISRDNAKNTVYLQMNSLKPEDTAVYYCAVRINWSRWYHYYTYNYWGQGTQVTVSS	high polyreactivity
QVQLVVSGGGLVQAGGSLRLSCAASGRIFRSYAKGWYRQAPGKERELVAAINYGGTSTYYADSVKGRFTISRDNAKNTVYLQMNSLKPEDTAVYYCAARRPTSPRRYESWGQGTQVTVSS	high polyreactivity
QVQLVESGGGLVQAGGSLRLSCAASGFIFWVYALGWYRQAPGKERELVAAITSGGGSTYYADSVKGRFTISRDNAKNSVYLQMNSLKPEDTAVYYCNSVSWEGYDFDYWGQGTQVTVSS	high polyreactivity

Reference: the nanobody polyreactivity screen of Harvey et al. (2022)
